# Assay results: patent US20220074941A1, “HSP90 COMBINATION THERAPY” (Sloan-Kettering Institute for Cancer Research, priority 2011, published 2022)
# B1: NUP85 (protein, UniProt Q9BW27 1-656, looked up)
# Nuclear pore complex protein …: MEELDGEPTVTLIPGVNSKKNQMYFDWGPGEMLVCETSFNKKEKSEMVPSCPFIYIIRKDVDVYSQILRKLFNESHGIFLGLQRIDEELTGKSRKSQLVRVSKNYRSVIRACMEEMHQVAIAAKDPANGRQFSSQVSILSAMELIWNLCEILFIEVAPAGPLLLHLLDWVRLHVCEVDSLSADVLGSENPSKHDSFWNLVTILVLQGRLDEARQMLSKEADASPASAGICRIMGDLMRTMPILSPGNTQTLTELELKWQHWHEECERYLQDSTFATSPHLESLLKIMLGDEAALLEQKELLSNWYHFLVTRLLYSNPTVKPIDLHYYAQSSLDLFLGGESSPEPLDNILLAAFEFDIHQVIKECSIALSNWWFVAHLTDLLDHCKLLQSHNLYFGSNMREFLLLEYASGLFAHPSLWQLGVDYFDYCPELGRVSLELHIERIPLNTEQKALKVLRICEQRQMTEQVRSICKILAMKAVRNNRLGSALSWSIRAKDAAFATLVSDRFLRDYCERGCFSDLDLIDNLGPAMMLSDRLTFLGKYREFHRMYGEKRFADAASLLLSLMTSRIAPRSFWMTLLTDALPLLEQKQVIFSAEQTYELMRCLEDLTSRRPVHGESDTEQLQDDDIETTKVEMLRLSLARNLARAIIREGSLEGS
# B2: NUP160 (protein, UniProt Q12769 1-1436, looked up)
# Nuclear pore complex protein …: MLHLSAAPPAPPPEVTATARPCLCSVGRRGDGGKMAAAGALERSFVELSGAERERPRHFREFTVCSIGTANAVAGAVKYSESAGGFYYVESGKLFSVTRNRFIHWKTSGDTLELMEESLDINLLNNAIRLKFQNCSVLPGGVYVSETQNRVIILMLTNQTVHRLLLPHPSRMYRSELVVDSQMQSIFTDIGKVDFTDPCNYQLIPAVPGISPNSTASTAWLSSDGEALFALPCASGGIFVLKLPPYDIPGMVSVVELKQSSVMQRLLTGWMPTAIRGDQSPSDRPLSLAVHCVEHDAFIFALCQDHKLRMWSYKEQMCLMVADMLEYVPVKKDLRLTAGTGHKLRLAYSPTMGLYLGIYMHAPKRGQFCIFQLVSTESNRYSLDHISSLFTSQETLIDFALTSTDIWALWHDAENQTVVKYINFEHNVAGQWNPVFMQPLPEEEIVIRDDQDPREMYLQSLFTPGQFTNEALCKALQIFCRGTERNLDLSWSELKKEVTLAVENELQGSVTEYEFSQEEFRNLQQEFWCKFYACCLQYQEALSHPLALHLNPHTNMVCLLKKGYLSFLIPSSLVDHLYLLPYENLLTEDETTISDDVDIARDVICLIKCLRLIEESVTVDMSVIMEMSCYNLQSPEKAAEQILEDMITIDVENVMEDICSKLQEIRNPIHAIGLLIREMDYETEVEMEKGFNPAQPLNIRMNLTQLYGSNTAGYIVCRGVHKIASTRFLICRDLLILQQLLMRLGDAVIWGTGQLFQAQQDLLHRTAPLLLSYYLIKWGSECLATDVPLDTLESNLQHLSVLELTDSGALMANRFVSSPQTIVELFFQEVARKHIISHLFSQPKAPLSQTGLNWPEMITAITSYLLQLLWPSNPGCLFLECLMGNCQYVQLQDYIQLLHPWCQVNVGSCRFMLGRCYLVTGEGQKALECFCQAASEVGKEEFLDRLIRSEDGEIVSTPRLQYYDKVLRLLDVIGLPELVIQLATSAITEAGDDWKSQATLRTCIFKHHLDLGHNSQAYEALTQIPDSSRQLDCLRQLVVVLCERSQLQDLVEFPYVNLHNEVVGIIESRARAVDLMTHNYYELLYAFHIYRHNYRKAGTVMFEYGMRLGREVRTLRGLEKQGNCYLAALNCLRLIRPEYAWIVQPVSGAVYDRPGASPKRNHDGECTAAPTNRQIEILELEDLEKECSLARIRLTLAQHDPSAVAVAGSSSAEEMVTLLVQAGLFDTAISLCQTFKLPLTPVFEGLAFKCIKLQFGGEAAQAEAWAWLAANQLSSVITTKESSATDEAWRLLSTYLERYKVQNNLYHHCVINKLLSHGVPLPNWLINSYKKVDAAELLRLYLNYDLLEEAVDLVSEYVDAVLGKGHQYFGIEFPLSATAPMVWLPYSSIDQLLQALGENSANSHNIALSQKILDKLEDYQQKVDKATRDLLYRRTL
# B3: NCKAP1 (protein, UniProt Q9Y2A7 2-1128, looked up)
# Nck-associated protein 1: SRSVLQPSQQKLAEKLTILNDRGVGMLTRLYNIKKACGDPKAKPSYLIDKNLESAVKFIVRKFPAVETRNNNQQLAQLQKEKSEILKNLALYYFTFVDVMEFKDHVCELLNTIDVCQVFFDITVNFDLTKNYLDLIITYTTLMILLSRIEERKAIIGLYNYAHEMTHGASDREYPRLGQMIVDYENPLKKMMEEFVPHSKSLSDALISLQMVYPRRNLSADQWRNAQLLSLISAPSTMLNPAQSDTMPCEYLSLDAMEKWIIFGFILCHGILNTDATALNLWKLALQSSSCLSLFRDEVFHIHKAAEDLFVNIRGYNKRINDIRECKEAAVSHAGSMHRERRKFLRSALKELATVLSDQPGLLGPKALFVFMALSFARDEIIWLLRHADNMPKKSADDFIDKHIAELIFYMEELRAHVRKYGPVMQRYYVQYLSGFDAVVLNELVQNLSVCPEDESIIMSSFVNTMTSLSVKQVEDGEVFDFRGMRLDWFRLQAYTSVSKASLGLADHRELGKMMNTIIFHTKMVDSLVEMLVETSDLSIFCFYSRAFEKMFQQCLELPSQSRYSIAFPLLCTHFMSCTHELCPEERHHIGDRSLSLCNMFLDEMAKQARNLITDICTEQCTLSDQLLPKHCAKTISQAVNKKSKKQTGKKGEPEREKPGVESMRKNRLVVTNLDKLHTALSELCFSINYVPNMVVWEHTFTPREYLTSHLEIRFTKSIVGMTMYNQATQEIAKPSELLTSVRAYMTVLQSIENYVQIDITRVFNNVLLQQTQHLDSHGEPTITSLYTNWYLETLLRQVSNGHIAYFPAMKAFVNLPTENELTFNAEEYSDISEMRSLSELLGPYGMKFLSESLMWHISSQVAELKKLVVENVDVLTQMRTSFDKPDQMAALFKRLSSVDSVLKRMTIIGVILSFRSLAQEALRDVLSYHIPFLVSSIEDFKDHIPRETDMKVAMNVYELSSAAGLPCEIDPALVVALSSQKSENISPEEEYKIACLLMVFVAVSLPTLASNVMSQYSPAIEGHCNNIHCLAKAINQIAAALFTIHKGSIEDRLKEFLALASSSLLKIGQETDKTTTRNRESVYLLLDMIVQESPFLTMDLLESCFPYVLLRNAYHAVYKQSVTSSA
# B4: SDCCAG1 (protein, UniProt O60524 1-1076, looked up)
# Ribosome quality control …: MKSRFSTIDLRAVLAELNASLLGMRVNNVYDVDNKTYLIRLQKPDFKATLLLESGIRIHTTEFEWPKNMMPSSFAMKCRKHLKSRRLVSAKQLGVDRIVDFQFGSDEAAYHLIIELYDRGNIVLTDYEYVILNILRFRTDEADDVKFAVRERYPLDHARAAEPLLTLERLTEIVASAPKGELLKRVLNPLLPYGPALIEHCLLENGFSGNVKVDEKLETKDIEKVLVSLQKAEDYMKTTSNFSGKGYIIQKREIKPSLEADKPVEDILTYEEFHPFLFSQHSQCPYIEFESFDKAVDEFYSKIEGQKIDLKALQQEKQALKKLDNVRKDHENRLEALQQAQEIDKLKGELIEMNLQIVDRAIQVVRSALANQIDWTEIGLIVKEAQAQGDPVASAIKELKLQTNHVTMLLRNPYLLSEEEDDDVDGDVNVEKNETEPPKGKKKKQKNKQLQKPQKNKPLLVDVDLSLSAYANAKKYYDHKRYAAKKTQKTVEAAEKAFKSAEKKTKQTLKEVQTVTSIQKARKVYWFEKFLWFISSENYLIIGGRDQQQNEIIVKRYLTPGDIYVHADLHGATSCVIKNPTGEPIPPRTLTEAGTMALCYSAAWDARVITSAWWVYHHQVSKTAPTGEYLTTGSFMIRGKKNFLPPSYLMMGFSFLFKVDESCVWRHQGERKVRVQDEDMETLASCTSELISEEMEQLDGGDTSSDEDKEEHETPVEVELMTQVDQEDITLQSGRDELNEELIQEESSEDEGEYEEVRKDQDSVGEMKDEGEETLNYPDTTIDLSHLQPQRSIQKLASKEESSNSSDSKSQSRRHLSAKERREMKKKKLPSDSGDLEALEGKDKEKESTVHIETHQNTSKNVAAVQPMKRGQKSKMKKMKEKYKDQDEEDRELIMKLLGSAGSNKEEKGKKGKKGKTKDEPVKKQPQKPRGGQRVSDNIKKETPFLEVITHELQDFAVDDPHDDKEEQDLDQQGNEENLFDSLTGQPHPEDVLLFAIPICAPYTTMTNYKYKVKLTPGVQKKGKAAKTALNSFMHSKEATAREKDLFRSVKDTDLSRNIPGKVKVSAPNLLNVKRK
# B5: TPP1 (protein, UniProt O14773 196-563, looked up)
# Tripeptidyl-peptidase 1: LHLGVTPSVIRKRYNLTSQDVGSGTSNNSQACAQFLEQYFHDSDLAQFMRLFGGNFAHQASVARVVGQQGRGRAGIEASLDVQYLMSAGANISTWVYSSPGRHEGQEPFLQWLMLLSNESALPHVHTVSYGDDEDSLSSAYIQRVNTELMKAAARGLTLLFASGDSGAGCWSVSGRHQFRPTFPASSPYVTTVGGTSFQEPFLITNEIVDYISGGGFSNVFPRPSYQEEAVTKFLSSSPHLPPSSYFNASGRAYPDVAALSDGYWVVSNRVPIPWVSGTSASTPVFGGILSLINEHRILSGRPPLGFLNPRLYQQHGAGLFDVTRGCHESCLDEEVEGQGFCSGPGWDPVTGWGTPNFPALLKTLLNP
# B6: NUP54 (protein, UniProt Q7Z3B4 1-507, looked up)
# Nucleoporin p54: MAFNFGAPSGTSGTAAATAAPAGGFGGFGTTSTTAGSAFSFSAPTNTGTTGLFGGTQNKGFGFGTGFGTTTGTSTGLGTGLGTGLGFGGFNTQQQQQTTLGGLFSQPTQAPTQSNQLINTASALSAPTLLGDERDAILAKWNQLQAFWGTGKGYFNNNIPPVEFTQENPFCRFKAVGYSCMPSNKDEDGLVVLVFNKKETEIRSQQQQLVESLHKVLGGNQTLTVNVEGTKTLPDDQTEVVIYVVERSPNGTSRRVPATTLYAHFEQANIKTQLQQLGVTLSMTRTELSPAQIKQLLQNPPAGVDPIIWEQAKVDNPDSEKLIPVPMVGFKELLRRLKVQDQMTKQHQTRLDIISEDISELQKNQTTSVAKIAQYKRKLMDLSHRTLQVLIKQEIQRKSGYAIQADEEQLRVQLDTIQGELNAPTQFKGRLNELMSQIRMQNHFGAVRSEERYYIDADLLREIKQHLKQQQEGLSHLISIIKDDLEDIKLVEHGLNETIHIRGGVFS
# Tested on: Hsp90 complexes in K562 cell extract
# Assay: Nano-LC-MS/MS of PU-beads pull-downs
# Format: binding
# Conditions: protein identified in PU-beads pull-down of K562 cell extract, Prep 1; QSTAR-Elite QTof MS
# Outline: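 Lysates pre-cleared overnight at 4 °C with control beads, then pulled down with PU-beads or control beads; eluted proteins (2% SDS boil) gel-separated and analysed by nano LC-MS/MS on a QTof. Mascot identification (p<0.05), spectral counts and sequence coverage evaluated in Scaffold.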
row,Molecule,"Number of Assigned Spectra, K562 Prep 1"
1,B1,14
2,B2,13
3,B3,5
4,B4,2
5,B5,4
6,B6,1

# Same assay, conditions: protein identified in PU-beads pull-down of K562 cell extract, Prep 2; QSTAR-Elite QTof MS
row,Molecule,"Number of Assigned Spectra, K562 Prep 2"
1,B1,2
2,B2,1
3,B3,1
4,B4,2
5,B5,1
6,B6,7

# Tested on: Hsp90 complexes in Mia-PaCa-2 cell extract
# Assay: Nano-LC-MS/MS of PU-beads pull-downs
# Format: binding, human
# Conditions: protein identified in PU-beads pull-down of Mia-PaCa-2 cell extract; QSTAR-Elite QTof MS
# Outline: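 Lysates pre-cleared overnight at 4 °C with control beads underwent PU-bead pull-down; bound proteins were SDS-eluted, gel-separated, digested and analyzed by nano-LC-MS/MS on a QTof. Identifications used significance p<0.05, 0.4 Da tolerances and one missed cleavage; unique peptide (spectral) counts and sequence coverage were reported.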
row,Molecule,"Number of Assigned Spectra, Mia-Paca 2"
1,B1,0
2,B2,0
3,B3,2
4,B4,3
5,B5,1
6,B6,0
